Measurements published in patent US20260022354, “TRANSPOSASES AND USES THEREOF” (Poseida Therapeutics, Inc., published 2026).
Residue numbers refer to the chain shown, from its start.

T1: GFP1 Right TAL-PBx (synthetic)
T1 chain: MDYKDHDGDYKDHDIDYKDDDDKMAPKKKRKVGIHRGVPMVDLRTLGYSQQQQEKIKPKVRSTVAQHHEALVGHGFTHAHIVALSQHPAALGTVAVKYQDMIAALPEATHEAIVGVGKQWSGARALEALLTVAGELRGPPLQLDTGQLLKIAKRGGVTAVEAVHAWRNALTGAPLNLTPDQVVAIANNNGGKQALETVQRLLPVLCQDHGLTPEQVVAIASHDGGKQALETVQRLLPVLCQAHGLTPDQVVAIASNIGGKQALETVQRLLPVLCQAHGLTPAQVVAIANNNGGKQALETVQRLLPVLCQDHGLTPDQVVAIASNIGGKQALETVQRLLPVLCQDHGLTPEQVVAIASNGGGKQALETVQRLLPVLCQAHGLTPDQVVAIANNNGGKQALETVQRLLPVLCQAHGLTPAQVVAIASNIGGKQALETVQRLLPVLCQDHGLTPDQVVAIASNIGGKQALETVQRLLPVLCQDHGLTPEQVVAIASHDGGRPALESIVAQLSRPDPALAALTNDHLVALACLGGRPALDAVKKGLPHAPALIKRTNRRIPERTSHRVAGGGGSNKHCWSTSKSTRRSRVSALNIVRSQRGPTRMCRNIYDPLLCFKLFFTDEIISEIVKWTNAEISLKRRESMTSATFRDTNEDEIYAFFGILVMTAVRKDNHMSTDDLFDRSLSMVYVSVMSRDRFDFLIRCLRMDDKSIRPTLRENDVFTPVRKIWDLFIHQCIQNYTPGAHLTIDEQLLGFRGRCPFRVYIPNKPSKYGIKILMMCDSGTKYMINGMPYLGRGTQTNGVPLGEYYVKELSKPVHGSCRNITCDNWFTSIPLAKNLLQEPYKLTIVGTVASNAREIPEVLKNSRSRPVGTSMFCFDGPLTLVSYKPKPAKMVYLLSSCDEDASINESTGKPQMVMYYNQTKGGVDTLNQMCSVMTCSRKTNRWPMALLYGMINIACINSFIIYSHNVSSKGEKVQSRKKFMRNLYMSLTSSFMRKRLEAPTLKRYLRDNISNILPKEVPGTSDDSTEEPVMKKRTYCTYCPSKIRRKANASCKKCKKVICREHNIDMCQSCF

B1: GFP1 Right 13bp CTTAAC (dsDNA)
DNA 1: TGCAGATGAACGCAATCTCACGGCTTAACTACTGACCTGAAGTTCATCTGCA
DNA 2: TGCAGATGAACTTCAGGTCAGTAGTTAAGCCGTGAGATTGCGTTCATCTGCA
B2: GFP1 Right 13bp TTTAAG (dsDNA)
DNA 1: B1 DNA 1 with C24T, C29G
DNA 2: B1 DNA 2 with G24C, G29A
B3: GFP1 Right 13bp CTTAAG (dsDNA)
DNA 1: B1 DNA 1 with C29G
DNA 2: B1 DNA 2 with G24C
B4: GFP1 Right 13bp CTTAAA (dsDNA)
DNA 1: B1 DNA 1 with C29A
DNA 2: B1 DNA 2 with G24T
B5: GFP1 Right 13bp TTTAAA (dsDNA)
DNA 1: B1 DNA 1 with C24T, C29A
DNA 2: B1 DNA 2 with G24T, G29A
B6: GFP1 Right 12bp TTTAAA (dsDNA)
DNA 1: TGCAGATGAACGCAATCTCCGGTTTAAATACTGACTGAAGTTCATCTGCA
DNA 2: TGCAGATGAACTTCAGTCAGTATTTAAACCGGAGATTGCGTTCATCTGCA
B7: GFP1 Right 12bp CTTAAA (dsDNA)
DNA 1: B6 DNA 1 with T23C
DNA 2: B6 DNA 2 with A28G

Molecular target: T1, GFP1 Right TAL-PBx
Test: cell_activity; HEK293T
Conditions: tags: PBx fusion; chain copies: 2 (palindromic half-sites; inferred)
Method: Each reporter plasmid and donor plasmid were cotransfected into HEK293T cells with the GFP1 Right TAL-PBx expression plasmid (SEQ ID No. 77). […] HEK293T cells were plated in 24 well plates in 500 μL of DMEM medium supplemented with 10% FBS. The following day, a transfection mixture containing 50 ng of the TAL-ssSPB expression vector, 225 ng of the reporter plasmid, 225 ng of donor plasmid and 1 μL of JetPrime transfection reagent in a total volume of 50 μL of JetPrime buffer were assembled. The mixture was added to the HEK293T cells and the cells were incubated for four days at 37° C. at 5% CO2, splitting the cells 1:6 on day one. The percentage of on-target site-specific transposition positive cells for the various constructs were determined by FACS analysis on day 4.
When the reporter and donor plasmids are co-transfected into cells along with TAL-PBx, TAL-PBx catalyzes the excision of the transposon from the donor plasmid and its site-specific integration into the TTAA target site of the reporter plasmid. Following site-specific transposition, transcription, splicing, and translation, a reconstituted GFP coding sequence is produced (DNA SEQ ID No. 75; Amino acid SEQ ID No. 76) and fluorescence can be detected. The percentage of on-target site-specific transposition positive cells for the various spacer length constructs were determined by FACS analysis and the results are shown in Table 9.

| Binder | activity [% GFP+ cells] |
| --- | --- |
| B1 | 20.9 |
| B2 | 32.2 |
| B3 | 24.7 |
| B4 | 32.8 |
| B5 | 27 |
| B6 | 30.8 |
| B7 | 34.6 |
